B1: UTP--glucose-1-phosphate uridylyltransferase wild type, P0AEP3 (protein)
chain: MAAINTKVKKAVIPVAGLGTRMLPATKAIPKEMLPLVDKPLIQYVVNECIAAGITEIVLVTHSSKNSIENHFDTSFELEAMLEKRVKRQLLDEVQSICPPHVTIMQVRQGLAKGLGHAVLCAHPVVGDEPVAVILPDVILDEYESDLSQDNLAEMIRRFDETGHSQIMVEPVADVTAYGVVDCKGVELAPGESVPMVGVVEKPKADVAPSNLAIVGRYVLSADIWPLLAKTPPGAGDEIQLTDAIDMLIEKETVEAYHMKGKSHDCGNKLGYMQAFVEYGIRHNTLGTEFKAWLEEEMGIKK
B2: Phenylalanine--tRNA ligase alpha subunit wild type, P08312 (protein)
chain: MSHLAELVASAKAAISQASDVAALDNVRVEYLGKKGHLTLQMTTLRELPPEERPAAGAVINEAKEQVQQALNARKAELESAALNARLAAETIDVSLPGRRIENGGLHPVTRTIDRIESFFGELGFTVATGPEIEDDYHNFDALNIPGHHPARADHDTFWFDTTRLLRTQTSGVQIRTMKAQQPPIRIIAPGRVYRNDYDQTHTPMFHQMEGLIVDTNISFTNLKGTLHDFLRNFFEEDLQIRFRPSYFPFTEPSAEVDVMGKNGKWLEVLGCGMVHPNVLRNVGIDPEVYSGFAFGMGMERLTMLRYGVTDLRSFFENDLRFLKQFK
B3: Phosphoribosylglycinamide formyltransferase wild type, P08179 (protein)
chain: MNIVVLISGNGSNLQAIIDACKTNKIKGTVRAVFSNKADAFGLERARQAGIATHTLIASAFDSREAYDRELIHEIDMYAPDVVVLAGFMRILSPAFVSHYAGRLLNIHPSLLPKYPGLHTHRQALENGDEEHGTSVHFVTDELDGGPVILQAKVPVFAGDSEDDITARVQTQEHAIYPLVISWFADGRLKMHENAAWLDGQRLPPQGYAADE
B4: GTPase ObgE/CgtA wild type, P42641 (protein)
chain: MKFVDEASILVVAGDGGNGCVSFRREKYIPKGGPDGGDGGDGGDVWMEADENLNTLIDYRFEKSFRAERGQNGASRDCTGKRGKDVTIKVPVGTRVIDQGTGETMGDMTKHGQRLLVAKGGWHGLGNTRFKSSVNRTPRQKTNGTPGDKRELLLELMLLADVGMLGMPNAGKSTFIRAVSAAKPKVADYPFTTLVPSLGVVRMDNEKSFVVADIPGLIEGAAEGAGLGIRFLKHLERCRVLLHLIDIDPIDGTDPVENARIIISELEKYSQDLATKPRWLVFNKIDLLDKVEAEEKAKAIAEALGWEDKYYLISAASGLGVKDLCWDVMTFIIENPVVQAEEAKQPEKVEFMWDDYHRQQLEEIAEEDDEDWDDDWDEDDEEGVEFIYKR
B5: Probable ATP-dependent transporter SufC wild type, P77499 (protein)
chain: MLSIKDLHVSVEDKAILRGLSLDVHPGEVHAIMGPNGSGKSTLSATLAGREDYEVTGGTVEFKGKDLLALSPEDRAGEGIFMAFQYPVEIPGVSNQFFLQTALNAVRSYRGQETLDRFDFQDLMEEKIALLKMPEDLLTRSVNVGFSGGEKKRNDILQMAVLEPELCILDESDSGLDIDALKVVADGVNSLRDGKRSFIIVTHYQRILDYIKPDYVHVLYQGRIVKSGDFTLVKQLEEQGYGWLTEQQ
B6: Integration host factor subunit alpha wild type, P0A6X7 (protein)
chain: MALTKAEMSEYLFDKLGLSKRDAKELVELFFEEIRRALENGEQVKLSGFGNFDLRDKNQRPGRNPKTGEDIPITARRVVTFRPGQKLKSRVENASPKDE
B7: Protein GrpE wild type, P09372 (protein)
chain: MSSKEQKTPEGQAPEEIIMDQHEEIEAVEPEASAEQVDPRDEKVANLEAQLAEAQTRERDGILRVKAEMENLRRRTELDIEKAHKFALEKFINELLPVIDSLDRALEVADKANPDMSAMVEGIELTLKSMLDVVRKFGVEVIAETNVPLDPNVHQAIAMVESDDVAPGNVLGIMQKGYTLNGRTIRAAMVTVAKAKA
B8: Formate-dependent phosphoribosylglycinamide formyltransferase wild type, P33221 (protein)
chain: MTLLGTALRPAATRVMLLGSGELGKEVAIECQRLGVEVIAVDRYADAPAMHVAHRSHVINMLDGDALRRVVELEKPHYIVPEIEAIATDMLIQLEEEGLNVVPCARATKLTMNREGIRRLAAEELQLPTSTYRFADSESLFREAVADIGYPCIVKPVMSSSGKGQTFIRSAEQLAQAWKYAQQGGRAGAGRVIVEGVVKFDFEITLLTVSAVDGVHFCAPVGHRQEDGDYRESWQPQQMSPLALERAQEIARKVVLALGGYGLFGVELFVCGDEVIFSEVSPRPHDTGMVTLISQDLSEFALHVRAFLGLPVGGIRQYGPAASAVILPQLTSQNVTFDNVQNAVGADLQIRLFGKPEIDGSRRLGVALATAESVVDAIERAKHAAGQVKVQG
B9: Mannosyl-3-phosphoglycerate phosphatase wild type, P76329 (protein)
chain: MFSIQQPLLVFSDLDGTLLDSHSYDWQPAAPWLTRLREANVPVILCSSKTSAEMLYLQKTLGLQGLPLIAENGAVIQLAEQWQEIDGFPRIISGISHGEISLVLNTLREKEHFKFTTFDDVDDATIAEWTGLSRSQAALTQLHEASVTLIWRDSDERMAQFTARLNELGLQFMQGARFWHVLDASAGKDQAANWIIATYQQLSGKRPTTLGLGDGPNDAPLLEVMDYAVIVKGLNREGVHLHDEDPARVWRTQREGPEGWREGLDHFFSAR
B10: dTDP-4-dehydrorhamnose 3,5-epimerase wild type, P37745 (protein)
chain: MNVIRTEIEDVLILEPRVFGDDRGFFYESFNQSAFEHILGYPVSFVQDNHSRSSKNVLRGLHFQRGEYAQDKLVRCTHGAVFDVAVDIRPNSVSFGKWVGVLLSADNKQQLWIPKGFAHGFLVLSDIAEFQYKTTNYYHPESDCGICWNDERIAIDWPQTSGLILSPKDERLFTLDELIRLKLIA
B11: dTDP-glucose 4,6-dehydratase 1 wild type, P37759 (protein)
chain: MKILVTGGAGFIGSAVVRHIINNTQDSVVNVDKLTYAGNRESLADVSDSERYVFEHADICDAPAMARIFAQHQPDAVMHLAAESHVDRSITGPAAFIETNIVGTYVLLEAARNYWSALDSDKKNSFRFHHISTDEVYGDLPHPDEVNNTEELPLFTETTAYAPSSPYSASKASSDHLVRAWKRTYGLPTIVTNCSNNYGPYHFPEKLIPLVILNALEGKALPIYGKGDQIRDWLYVEDHARALYTVVTEGKAGETYNIGGHNEKKNIDVVLTICDLLDEIVPKEKSYREQITYVADRPGHDRRYAIDAEKIGRALGWKPQETFESGIRKTVEWYLSNTKWVDNVKSGAYQSWIEQNYEGRQ
B12: Phosphoribosylaminoimidazole-succinocarboxamide synthase wild type, P0A7D7 (protein)
chain: MQKQAELYRGKAKTVYSTENPDLLVLEFRNDTSAGDGARIEQFDRKGMVNNKFNYFIMSKLAEAGIPTQMERLLSDTECLVKKLDMVPVECVVRNRAAGSLVKRLGIEEGIELNPPLFDLFLKNDAMHDPMVNESYCETFGWVSKENLARMKELTYKANDVLKKLFDDAGLILVDFKLEFGLYKGEVVLGDEFSPDGSRLWDKETLEKMDKDRFRQSLGGLIEAYEAVARRLGVQLD
B13: Ribosomal small subunit pseudouridine synthase A wild type, P0AA43 (protein)
chain: MRLDKFIAQQLGVSRAIAGREIRGNRVTVDGEIVRNAAFKLLPEHDVAYDGNPLAQQHGPRYFMLNKPQGYVCSTDDPDHPTVLYFLDEPVAWKLHAAGRLDIDTTGLVLMTDDGQWSHRITSPRHHCEKTYLVTLESPVADDTAEQFAKGVQLHNEKDLTKPAVLEVITPTQVRLTISEGRYHQVKRMFAAVGNHVVELHRERIGGITLDADLAPGEYRPLTEEEIASVV
B14: Transcriptional regulatory protein CusR wild type, P0ACZ8 (protein)
chain: MKLLIVEDEKKTGEYLTKGLTEAGFVVDLADNGLNGYHLAMTGDYDLIILDIMLPDVNGWDIVRMLRSANKGMPILLLTALGTIEHRVKGLELGADDYLVKPFAFAELLARVRTLLRRGAAVIIESQFQVADLMVDLVSRKVTRSGTRITLTSKEFTLLEFFLRHQGEVLPRSLIASQVWDMNFDSDTNAIDVAVKRLRGKIDNDFEPKLIQTVRGVGYMLEVPDGQ
B15: Glucokinase wild type, P0A6V8 (protein)
chain: MTKYALVGDVGGTNARLALCDIASGEISQAKTYSGLDYPSLEAVIRVYLEEHKVEVKDGCIAIACPITGDWVAMTNHTWAFSIAEMKKNLGFSHLEIINDFTAVSMAIPMLKKEHLIQFGGAEPVEGKPIAVYGAGTGLGVAHLVHVDKRWVSLPGEGGHVDFAPNSEEEAIILEILRAEIGHVSAERVLSGPGLVNLYRAIVKADNRLPENLKPKDITERALADSCTDCRRALSLFCVIMGRFGGNLALNLGTFGGVFIAGGIVPRFLEFFKASGFRAAFEDKGRFKEYVHDIPVYLIVHDNPGLLGSGAHLRQTLGHIL
B16: UDP-glucose 4-epimerase wild type, P09147 (protein)
chain: MRVLVTGGSGYIGSHTCVQLLQNGHDVIILDNLCNSKRSVLPVIERLGGKHPTFVEGDIRNEALMTEILHDHAIDTVIHFAGLKAVGESVQKPLEYYDNNVNGTLRLISAMRAANVKNFIFSSSATVYGDQPKIPYVESFPTGTPQSPYGKSKLMVEQILTDLQKAQPDWSIALLRYFNPVGAHPSGDMGEDPQGIPNNLMPYIAQVAVGRRDSLAIFGNDYPTEDGTGVRDYIHVMDLADGHVVAMEKLANKPGVHIYNLGAGVGNSVLDVVNAFSKACGKPVNYHFAPRREGDLPAYWADASKADRELNWRVTRTLDEMAQDTWHWQSRHPQGYPD
B17: Putative NAD(P)H nitroreductase YdjA wild type, P0ACY1 (protein)
chain: MDALELLINRRSASRLAEPAPTGEQLQNILRAGMRAPDHKSMQPWHFFVIEGEGRERFSAVLEQGAIAAGSDDKAIDKARNAPFRAPLIITVVAKCEENHKVPRWEQEMSAGCAVMAMQMAAVAQGFGGIWRSGALTESPVVREAFGCREQDKIVGFLYLGTPQLKASTSINVPDPTPFVTYF

Conditions: Escherichia coli (strain K12); pH 7.5; Thermal; Intensity; HEPES 20mM; transition: 2; whole UniProt chain shown

| Protein | Tm |
| --- | --- |
| B1 | 45.6 °C |
| B2 | 43.3 °C |
| B3 | 43.5 °C |
| B4 | 44.5 °C |
| B5 | 44.9 °C |
| B6 | 44.6 °C |
| B7 | 44 °C |
| B8 | 43.4 °C |
| B9 | 43.9 °C |
| B10 | 44.2 °C |
| B11 | 44.3 °C |
| B12 | 43.1 °C |
| B13 | 45 °C |
| B14 | 43.7 °C |
| B15 | 44.4 °C |
| B16 | 45 °C |
| B17 | 45.3 °C |

Reference: FireProtDB (doi:10.1126/science.aai7825)
